Reference: the Human Domainome abundance scans (Beltran et al. 2025)
± gives the uncertainty stated by the source.

B1: Dystrobrevin alpha, residues 235 to 294; numbered along this chain, Q9Y4J8 (parent)
chain: ENVFHPVECSYCHSESMMGFRYRCQQCHNYQLCQDCFWRGHAGGSHSNQHQMKEYTSWKS

Variants of: B1
Experiment: abundance fitness (aPCA) (normalised: wild type 0, dead -1); higher = more abundant; growth selection in yeast, the domain comes from the species named
Settings: Homo sapiens

ENVFHPVECSYCHSESMMGFRYRCQQCLNYQLCQDCFWRGHAGGSHSNQHQMKEYTSWKS [H28L] and ENVFHPVECSYCHSESMMGFRYRCQQCINYQLCQDCFWRGHAGGSHSNQHQMKEYTSWKS [H28I] are within error of each other in abundance fitness: 0.002 ± 0.046 for the first, 0.033 ± 0.062 for the second.

Compared with ENVFHPVECSYCHSESMMGFRYRCQQCMNYQLCQDCFWRGHAGGSHSNQHQMKEYTSWKS [H28M], ENVFHPVECSYCHSESMMGFRYRCQQCNNYQLCQDCFWRGHAGGSHSNQHQMKEYTSWKS [H28N] is higher in abundance fitness: -0.008 ± 0.064 for the first, 0.152 ± 0.076 for the second.

ENVFHPVECSYCHSESMMGFRYRCQQCSNYQLCQDCFWRGHAGGSHSNQHQMKEYTSWKS [H28S] and ENVFHPVECSYCHSESMMGFRYRCQQCENYQLCQDCFWRGHAGGSHSNQHQMKEYTSWKS [H28E] are within error of each other in abundance fitness: 0.027 ± 0.051 for the first, 0.063 ± 0.06 for the second.

First: ENVFHPVECSYCHSESMMGFRYRCQQCRNYQLCQDCFWRGHAGGSHSNQHQMKEYTSWKS [H28R]
Second: ENVFHPVECSYCHSESMMGFRYRCQQCGNYQLCQDCFWRGHAGGSHSNQHQMKEYTSWKS [H28G]
The abundance fitness of the first is higher: -0.002 ± 0.052 for the first, -0.1 ± 0.042 for the second.

ENVFHPVECSYCHSESMMGFRYRCQQCTNYQLCQDCFWRGHAGGSHSNQHQMKEYTSWKS [H28T] and ENVFHPVECSYCHSESMMGFRYRCQQCPNYQLCQDCFWRGHAGGSHSNQHQMKEYTSWKS [H28P] are within error of each other in abundance fitness: 0.1 ± 0.053 for the first, 0.066 ± 0.078 for the second.

Compared with ENVFHPVECSYCHSESMMGFRYRCQQCDNYQLCQDCFWRGHAGGSHSNQHQMKEYTSWKS [H28D], ENVFHPVECSYCHSESMMGFRYRCQQCVNYQLCQDCFWRGHAGGSHSNQHQMKEYTSWKS [H28V] is lower in abundance fitness: 0.209 ± 0.053 for the first, 0.06 ± 0.047 for the second.

First: ENVFHPVECSYCHSESMMGFRYRCQQCANYQLCQDCFWRGHAGGSHSNQHQMKEYTSWKS [H28A]
Second: ENVFHPVECSYCHSESMMGFRYRCQQCFNYQLCQDCFWRGHAGGSHSNQHQMKEYTSWKS [H28F]
The abundance fitness of the first is higher: 0.145 ± 0.043 for the first, -0.112 ± 0.065 for the second.

ENVFHPVECSYCHSESMMGFRYRCQQCWNYQLCQDCFWRGHAGGSHSNQHQMKEYTSWKS [H28W] and ENVFHPVECSYCHSESMMGFRYRCQQCCNYQLCQDCFWRGHAGGSHSNQHQMKEYTSWKS [H28C] are within error of each other in abundance fitness: -0.16 ± 0.082 for the first, -0.093 ± 0.061 for the second.

Going from ENVFHPVECSYCHSESMMGFRYRCQQCKNYQLCQDCFWRGHAGGSHSNQHQMKEYTSWKS [H28K] to ENVFHPVECSYCHSESMMGFRYRCQQRHNYQLCQDCFWRGHAGGSHSNQHQMKEYTSWKS [C27R], the abundance fitness falls from 0.122 ± 0.063 to -0.876 ± 0.066.

ENVFHPVECSYCHSESMMGFRYRCQQTHNYQLCQDCFWRGHAGGSHSNQHQMKEYTSWKS [C27T] and ENVFHPVECSYCHSESMMGFRYRCQQWHNYQLCQDCFWRGHAGGSHSNQHQMKEYTSWKS [C27W] are within error of each other in abundance fitness: -0.877 ± 0.12 for the first, -0.838 ± 0.13 for the second.

Going from ENVFHPVECSYCHSESMMGFRYRCQQVHNYQLCQDCFWRGHAGGSHSNQHQMKEYTSWKS [C27V] to ENVFHPVECSYCHSESMMGFRYRCQQCHNYELCQDCFWRGHAGGSHSNQHQMKEYTSWKS [Q31E], the abundance fitness rises from -0.85 ± 0.066 to 0.112 ± 0.072.

ENVFHPVECSYCHSESMMGFRYRCQQCHNYCLCQDCFWRGHAGGSHSNQHQMKEYTSWKS [Q31C] and ENVFHPVECSYCHSESMMGFRYRCQQCHNYNLCQDCFWRGHAGGSHSNQHQMKEYTSWKS [Q31N] are within error of each other in abundance fitness: -0.151 ± 0.15 for the first, -0.202 ± 0.2 for the second.

ENVFHPVECSYCHSESMMGFRYRCQQCHNYDLCQDCFWRGHAGGSHSNQHQMKEYTSWKS [Q31D] and ENVFHPVECSYCHSESMMGFRYRCQQCHNYILCQDCFWRGHAGGSHSNQHQMKEYTSWKS [Q31I] are within error of each other in abundance fitness: -0.012 ± 0.076 for the first, -0.053 ± 0.089 for the second.

ENVFHPVECSYCHSESMMGFRYRCQQCHNYSLCQDCFWRGHAGGSHSNQHQMKEYTSWKS [Q31S] and ENVFHPVECSYCHSESMMGFRYRCQQCHNYFLCQDCFWRGHAGGSHSNQHQMKEYTSWKS [Q31F] are within error of each other in abundance fitness: -0.007 ± 0.06 for the first, 0.119 ± 0.15 for the second.

Compared with ENVFHPVECSYCHSESMMGFRYRCQQCHNYVLCQDCFWRGHAGGSHSNQHQMKEYTSWKS [Q31V], ENVFHPVECSYCHSESMMGFRYRCQQCHNYALCQDCFWRGHAGGSHSNQHQMKEYTSWKS [Q31A] is lower in abundance fitness: 0.098 ± 0.07 for the first, -0.085 ± 0.055 for the second.

ENVFHPVECSYCHSESMMGFRYRCQQCHNYWLCQDCFWRGHAGGSHSNQHQMKEYTSWKS [Q31W] and ENVFHPVECSYCHSESMMGFRYRCQQCHNYYLCQDCFWRGHAGGSHSNQHQMKEYTSWKS [Q31Y] are within error of each other in abundance fitness: 0.11 ± 0.12 for the first, -0.034 ± 0.1 for the second.

Going from ENVFHPVECSYCHSESMMGFRYRCQQCHNYLLCQDCFWRGHAGGSHSNQHQMKEYTSWKS [Q31L] to ENVFHPVECSYCHSESMMGFRYRCQQCHNYRLCQDCFWRGHAGGSHSNQHQMKEYTSWKS [Q31R], the abundance fitness falls from -0.153 ± 0.069 to -0.318 ± 0.08.

First: ENVFHPVECSYCHSESMMGFRYRCQQCHNYKLCQDCFWRGHAGGSHSNQHQMKEYTSWKS [Q31K]
Second: ENVFHPVECSYCHSESMMGFRYRCQQCHNYTLCQDCFWRGHAGGSHSNQHQMKEYTSWKS [Q31T]
The abundance fitness of the first is lower: -0.318 ± 0.13 for the first, 0.083 ± 0.077 for the second.

ENVFHPVECSYCHSESMMGFRYRCQQCHNYPLCQDCFWRGHAGGSHSNQHQMKEYTSWKS [Q31P] and ENVFHPVECSYCHSESMMGFRYRCQQCHNCQLCQDCFWRGHAGGSHSNQHQMKEYTSWKS [Y30C] are within error of each other in abundance fitness: -0.536 ± 0.11 for the first, -0.554 ± 0.22 for the second.

Compared with ENVFHPVECSYCHSESMMGFRYRCQQCHNVQLCQDCFWRGHAGGSHSNQHQMKEYTSWKS [Y30V], ENVFHPVECSYCHSESMMGFRYRCQQCHNAQLCQDCFWRGHAGGSHSNQHQMKEYTSWKS [Y30A] is lower in abundance fitness: -0.206 ± 0.059 for the first, -0.398 ± 0.093 for the second.

ENVFHPVECSYCHSESMMGFRYRCQQCHNEQLCQDCFWRGHAGGSHSNQHQMKEYTSWKS [Y30E] and ENVFHPVECSYCHSESMMGFRYRCQQCHNDQLCQDCFWRGHAGGSHSNQHQMKEYTSWKS [Y30D] are within error of each other in abundance fitness: -0.378 ± 0.09 for the first, -0.508 ± 0.1 for the second.

First: ENVFHPVECSYCHSESMMGFRYRCQQCHNQQLCQDCFWRGHAGGSHSNQHQMKEYTSWKS [Y30Q]
Second: ENVFHPVECSYCHSESMMGFRYRCQQCHNFQLCQDCFWRGHAGGSHSNQHQMKEYTSWKS [Y30F]
The abundance fitness of the first is lower: -0.559 ± 0.085 for the first, -0.183 ± 0.1 for the second.
